Data taken from patent US20200347130A1 (JIANGSU HENGRUI MEDICINE, published 2020).

T1: CD96 extracellular region with His tag (CD96-His) (human, UniProt P40200 22-519)
T1 construct: also called CD96-ECD-His; Bio-CD96-His (biotin-labelled form)
T1 sequence: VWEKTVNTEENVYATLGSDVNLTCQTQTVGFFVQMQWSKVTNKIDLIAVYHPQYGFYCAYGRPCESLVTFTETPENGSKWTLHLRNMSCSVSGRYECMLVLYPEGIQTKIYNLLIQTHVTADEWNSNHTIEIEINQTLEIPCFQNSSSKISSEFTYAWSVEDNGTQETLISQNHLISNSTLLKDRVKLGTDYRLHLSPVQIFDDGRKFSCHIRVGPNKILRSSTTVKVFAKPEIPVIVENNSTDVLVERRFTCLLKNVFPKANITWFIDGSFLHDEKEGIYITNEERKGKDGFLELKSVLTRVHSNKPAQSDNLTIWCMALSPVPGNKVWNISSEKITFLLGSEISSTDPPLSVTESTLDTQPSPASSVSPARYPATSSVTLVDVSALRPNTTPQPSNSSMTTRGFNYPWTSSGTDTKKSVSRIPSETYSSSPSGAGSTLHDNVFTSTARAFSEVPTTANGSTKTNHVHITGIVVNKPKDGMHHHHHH

T2: Full-length human CD96 on CHO-S cells (human, UniProt P40200 22-585)
T2 construct: also called CD96-CHOs; hCD96-CHOs
T2 sequence: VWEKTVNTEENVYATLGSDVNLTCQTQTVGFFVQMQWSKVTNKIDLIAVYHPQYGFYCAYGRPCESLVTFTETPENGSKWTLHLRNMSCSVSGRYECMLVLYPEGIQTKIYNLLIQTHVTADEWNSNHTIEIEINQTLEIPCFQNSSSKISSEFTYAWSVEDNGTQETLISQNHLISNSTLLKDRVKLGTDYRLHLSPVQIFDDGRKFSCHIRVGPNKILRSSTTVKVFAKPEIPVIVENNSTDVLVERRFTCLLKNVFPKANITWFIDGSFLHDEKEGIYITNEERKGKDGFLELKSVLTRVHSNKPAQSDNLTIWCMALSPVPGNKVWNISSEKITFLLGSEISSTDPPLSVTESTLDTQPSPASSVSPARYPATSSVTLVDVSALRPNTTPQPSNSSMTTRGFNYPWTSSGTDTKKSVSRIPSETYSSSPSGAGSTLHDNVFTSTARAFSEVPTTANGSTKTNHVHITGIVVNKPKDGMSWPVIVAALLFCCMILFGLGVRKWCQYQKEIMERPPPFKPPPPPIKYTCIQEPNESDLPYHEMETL

B1: h1722-005 (antibody, V domains shown)
VH: EVQLVQSGAEVKKPGSSVKVSCKASGGTFSDYWMHWVRQAPGQGLEWMGMLHPNSGTTSFNEKFKIRVTITADKSTSTAYMELSSLRSEDTAVYYCARDYSGPFAYWGQGTLVTVSS
VL: DIQMTQSPSSLSASVGDRVTITCSASSSVNYIHWYQQKPGKAPKRWIYDTSKLASGVPSRFSGSGSGTDFTLTISSLQPEDFATYYCQQWRSNPLTFGQGTKLEIK
notes: Only variable regions are tied to this name
B2: h1722-009 (antibody, V domains shown)
VH: EVQLVQSGAEVKKPGSSVKVSCKASGGTFSDYWMHWVRQAPGQGLEWMGMLHPNSGTTSFNEKFKIRVTITADKSTSTAYMELSSLRSEDTAVYYCARDYSGPFAYWGQGTLVTVSS
VL: DIQLTQSPSSLSASVGDRVTITCSASSSVNYIHWYQQKPGKAPKRWIFDTSKLASGVPSRFSGSGSGTDYTLTISSLQPEDFATYYCQQWRSNPLTFGQGTKLEIK
notes: as for B1
B3: h1722-011 (antibody, V domains shown)
VH: EVQLVQSGAEVKKPGSSVKVSCKASGGTFSDYWMHWVKQAPGQGLEWIGMLHPNSGTTSFNEKFKIRVTITIDKSTSTAYMELSSLRSEDTAVYYCASDYSGPFAYWGQGTLVTVSS
VL: DIQLTQSPSSLSASVGDRVTITCSASSSVNYIHWYQQKPGKAPKRWIFDTSKLASGVPSRFSGSGSGTDYTLTISSLQPEDFATYYCQQWRSNPLTFGQGTKLEIK
notes: as for B1
B4: h1722-012 (antibody, V domains shown)
VH: EVQLVQSGAEVKKPGSSVKVSCKASGNTFSDYWMHWVKQAPGQGLEWIGMLHPNSGTTSFNEKFKIRTTITIDKSTSTAYMELSSLRSEDTAVYYCASDYSGPFAYWGQGTLVTVSS
VL: DIQLTQSPSSLSASVGDRVTITCSASSSVNYIHWYQQKPGKAPKRWIFDTSKLASGVPSRFSGSGSGTDYTLTISSLQPEDFATYYCQQWRSNPLTFGQGTKLEIK
notes: as for B1
B5: h1719-007 (antibody, V domains shown)
VH: EVTLKESGPVLVKPTETLTLTCTVSGFSLSSYGVSWVRQPPGKGLEWLGVIWGDGNTNYHSVLISRLTISKDTSKSQVVLTLTNMDPVDTATYYCAKQNYYGSRYGYPLDYWGQGTTVTVSS
VL: DIQMTQSPSSVSASVGDRVTITCKATQDVGTAVAWYQQKPGKAPKLLIYWASTRHTGVPSRFSGSGSGTDFTLTISSLQPEDFATYYCQQYGSSVLTFGGGTKVEIK
notes: as for B1
B6: h1719-008 (antibody, V domains shown)
VH: EVTLKESGPVLVKPTETLTLTCTVSGFSLSSYGVSWVRQPPGKGLEWLGVIWGDGNTNYHSVLISRLTISKDTSKSQVVLTLTNMDPVDTATYYCAKNYYYGSRYGYPLDYWGQGTTVTVSS
VL: DIQMTQSPSSVSASVGDRVTITCKATQDVGTAVAWYQQKPGKAPKLLIYWASTRHTGVPSRFSGSGSGTDFTLTISSLQPEDFATYYCQQYGSSVLTFGGGTKVEIK
notes: as for B1
B7: h1719-013 (antibody, V domains shown)
VH: EVTLKESGPVLVKPTETLTLTCTVSGFSLSSYGVSWVRQPPGKGLEWLGVIWGDGNTNYHSVLISRLTISKDTSKSQVVLTLTNMDPVDTATYYCAKQNYYGSRYGYPLDYWGQGTTVTVSS
VL: DIQMTQSPSSVSASVGDRVTITCKATQDVGTAVAWYQQKPGKSPKLLIYWASTRHTGVPERFSGSGSGTDFTLTISSLQPEDFATYFCQQYGSSVLTFGGGTKVEIK
notes: as for B1
B8: h1719-016 (antibody, V domains shown)
VH: EVTLKESGPVLVKPTETLTLTCTVSGFSLSSYGVSWVRQPPGKGLEWLGVIWGDGNTNYHSVLISRLTISKDTSKSQVVLTLTNMDPVDTATYYCAKQNYYGSRYGYPIDYWGQGTTVTVSS
VL: DIQMTQSPSSVSASVGDRVTITCKATQDVGTAVAWYQQKPGKSPKLLIYWASTRHTGVPERFSGSGSGTDFTLTISSLQPEDFATYFCQQYGSSVLTFGGGTKVEIK
notes: as for B1

How the values were obtained:
[1] = molecular target: T1, CD96 extracellular region with His tag …; assay: SPR (Biacore), antibody captured, CD96-ECD-His as mobile phase
Excerpt: Protein A biosensor chip was used to capture antibodies to be tested, then CD96 antigen was flowed on the surface of the chip, and real time reaction signal was detected by Biacore to obtain the binding and dissociation curve. After the dissociation of each experimental cycle was completed, the biosensor chip was washed and regenerated with a glycine-hydrochloric acid regeneration solution (pH 1.5).

[2] = molecular target: T1, CD96 extracellular region with His tag …; assay: ELISA, CD96-His coated
Description: The binding capacity of the anti-CD96 antibody was tested by ELISA to determine the binding of the antibody to human CD96 protein. The His-tagged CD96 fusion protein was used to coat the microtiter plate, and the intensity of the signal after adding with the antibody was used for evaluating the binding activity of the antibody and CD96. The specific experimental method is as follows:
CD96-His with the sequence of SEQ ID NO: 4 prepared in Embodiment 1 was diluted to a concentration of 2 μg/ml with PBS buffer (Shanghai Yuanpei Biotechnology Co., Ltd. Cat No. B320), pH 7.4, added to a 96-well microtiter plate (Corning, Cat No. CLS3590-100EA) at a volume of 50 μl/well, and placed in an incubator at 37° C. for 2 hours. After discarding the liquid, 250 μl/well of 5% skim milk (BD, Cat No. 232100) blocking solution diluted with PBS was added, and the plate was incubated at 37° C. for 2.5 hours or at 4° C. overnight (16-18 hours) for blocking. After blocking, the blocking solution was discarded, and the plate was washed 4 times with PBST buffer (pH 7.4 PBS containing 0.05% tween-20). 50 μl/well of different concentrations of the antibodies to be tested (hybridoma purification antibody or humanized antibody) diluted with sample dilution was added, and the plate was incubated in an incubator at 37° C. for 1 hour. […] After washing the plate 4 times with PBST, 50 μl/well of TMB chromogenic substrate (KPL, Cat No. 52-00-03) was added, and the plate was incubated at room temperature for 5-15 minutes, followed by adding 50 μl/well of 1M H₂SO₄ to stop the reaction. The absorption value was read at 450 nm with a NOVOStar microplate reader, and the EC50 value of the binding of CD96 antibody to human CD96 was calculated (see Table 13).

[3] = molecular target: T2, Full-length human CD96 on CHO-S cells; assay: cell ELISA, fixed CD96-overexpressing CHO-S cells
Description: The binding capacity of the anti-CD96 antibody was tested by binding experiments of the antibody to human CD96 protein overexpressing CHO-S cells. The full-length CD96 plasmid was transfected into CHO-S cells by electrotransfection, and cells were then screened for two weeks under pressure for the detection of the expression of CD96. After the over-expressing cells were fixed at the bottom of the 96-well plate, the density of the signal after adding the antibody was used to judge the binding activity of the antibody to CD96 overexpressing CHO-S cells. The specific experimental method is as follows:
The cells were seeded at a density of 9×10⁴/100 μL/well in a 96-well plate and cultured overnight. After aspirating the supernatant, the plate was washed once with PBS, subsequently, 100 μl/well immunostaining fixation solution (Biyuntian, P0098) was added and fixed for one hour at room temperature, and the plate was washed three times with PBS. Once the liquid was discarded, 250 μl/well of 5% skim milk (BD, 232100) blocking solution diluted with PBS was added, and the plate was blocked in an incubator at 37° C. for 2.5 hours. After blocking, the blocking solution was discarded, the plate was washed 4 times with PBST buffer (pH 7.4 PBS containing 0.05% tween-20), followed by diluting 50 μl/well of different concentrations of the antibodies (hybridoma purification antibody or humanized antibody) to be tested the plate was incubated in an incubator at 37° C. for 2 hours. After incubation, the plate was wash 4 times with PBST. […] After washing the plate 4 times with PBST, 50 μl/well of TMB chromogenic substrate (KPL, Cat No. 52-00-03) was added, the plate was incubated at room temperature for 10-25 min, followed by adding 50 μl/well of 1M H₂SO₄ to stop the reaction. The absorption value was read at 450 nm with a NOVOStar microplate reader, and the EC50 value of the CD96 antibodies to CD96 overexpressing CHO-S cells was calculated (see FIG. 1 and Table 15).

Binder	Kd [1]	EC50 [2]	EC50 [3]
B1	9.87 nM	0.072 nM	0.045 nM
B2	4.55 nM	–	–
B3	0.948 nM	–	–
B4	0.781 nM	–	–
B5	25.5 nM	–	–
B6	17.6 nM	–	–
B7	19.8 nM	–	–
B8	90.7 nM	–	–
